We go through six molecules from US20230287094A1 (LUDWIG INSTITUTE FOR CANCER RESEARCH, published 2023).

The target in one assay is T1, human TGF-β3 (human, UniProt P10600 301-412).
T1 sequence: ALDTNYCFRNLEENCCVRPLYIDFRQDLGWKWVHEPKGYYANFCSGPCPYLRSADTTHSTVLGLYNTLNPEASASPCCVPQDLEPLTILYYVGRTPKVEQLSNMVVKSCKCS
Nature of the assay: cell-based or functional assay.

Assay [1] addresses T2, human TGF-β2 (human, UniProt P61812 303-414).
T2 construct: also called TGF-ß2
T2 sequence (looked up): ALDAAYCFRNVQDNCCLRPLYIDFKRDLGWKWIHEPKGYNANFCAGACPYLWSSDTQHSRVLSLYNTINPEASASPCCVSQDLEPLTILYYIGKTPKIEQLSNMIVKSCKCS
Nature of the assay: cell-based or functional assay.

A further assay has as its target human TGF-β1 (human, UniProt P01137 279-390). Nature of the assay: cell-based or functional assay.
For assay [2], the target named is T2, human TGF-β2. Nature of the assay: assay not named. The protocol: Mink lung epithelial cell line (TMLECs) were stably transfected with a truncated PAI-1 promoter fused to the firefly luciferase reporter gene. 500 pg/ml human TGF-ß3 was incubated with serial dilutions of isolated TGF-β3 antibody for 4 h at 37° C. before transfer to an equal volume of culture medium (DMEM + 10 % FCS) where 50,000 TMLEC cells had been seeded 1 - 4 h earlier. After a further 24 h incubation, luciferase activity was measured with the BRITELITE kit from Perkin-Elmer and luminescence was measured in a TOPCOUNT NXT from Perkin Elmer.
Antibody ranging from 10 to 0 µg/ml were incubated with 500 pg/ml of the different TGF-β isoforms and TMLEC cells for 24 hours.

Chain of human TGF-β1 (P01137 279-390 limits assumed): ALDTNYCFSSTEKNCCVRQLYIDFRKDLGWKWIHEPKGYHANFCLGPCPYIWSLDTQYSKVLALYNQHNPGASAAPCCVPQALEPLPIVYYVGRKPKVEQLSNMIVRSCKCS

B1: MTGF-β3-1203/11 (antibody, IgG2b, V domains shown)
VH: QVQLKQSGAELVKPGASVKISCKASGYTFTDYYINWVKQRPGQGLEWIGKIGPGTGRTYYNEKFKGKATLTADKSSSTAYMQLSSLTSEDSAVYFCAIYYGWGYAMDYWGQGTSVTVSS
VL: DIVMTQSPSSLSVSAGEKVTMSCKSSQSLLNSGNQKNYLAWYQQKSGQPPKLLIYGASTRESGVPDRFTGSGSGTDFTLTISSVQAEDLAVYYCQNDHGFPLTFGAGTKLELK
In the case of B1, the “IC 50 (ng/ml), TMLEC PAI-1 promoter luciferase assay” value (“IC 50 (ng/ml)” below) with human TGF-β3 came to 54 ng/mL.

B2: MTGF-β3-1901/16 (antibody, IgG1, V domains shown)
VH: QVLLQQSGPELVKPGASVKISCKASGYAFSSSWIHWVKQRPGKGLEWIGRIYPGDGDTNYTGKFKGKATLTADKSSSTAYMQLSSLTSEDSAVYFCARRMITTQAAMDYWGQGTSVTVSS
VL: SFVMTQTPKFLLVSAGDRVTITCKASQSVINAVAWYQQKPGQSPKLLIYYASNRYTGVPDRFTGNGYGTDFTFTISTVQAEDLAVYFCQQDYSSPYTFGGGTKLEIK
On to B2, for which, in the assay with human TGF-β3, the “IC 50 (ng/ml)” value came out at 25 ng/mL.

B3: MTGF-β3-1679/2 (antibody, IgG2a, V domains shown)
VH: QVLLQQSGPELVKPGASVKISCKASGYAFSSSWIHWVKQRPGKGLEWIGRIYPGDGDTNYTGKFKGKATLTADKSSSTAYMQLSSLTSEDSAVYFCARRMITTQAAMDYWGQGTSVTVSS
VL: SFVMTQTPKFLLVSAGDRVTITCKASQSVINAVAWYQQKPGQSPKLLIYYASNRYTGVPDRFTGNGYGTDFTFTISTVQAEDLAVYFCQQDYSSPYTFGGGTKLEIK
Regarding B3, in the assay with human TGF-β3, the “IC 50 (ng/ml)” value amounted to 6 ng/mL.

B4: MTGF-β3-9/8 (antibody, IgG2a, V domains shown)
VH: QVLLQQSGPELVKPGASVKISCKASGYAFSSSWMHWVKQRPGKGLEWIGRIFPGDGDTIYNGNFKGKATLTADKSSSTAYMQLSSLTSEDSAVYFCARRMITTQAAMDYWGQGTSVTVSS
VL: SIVMTQTPKFLLVSAGDRVTITCKASQSVINDVAWYQQKPGQSPKLLIYYASNRYTGVPDRFTGNGYGTDFTFTISTVQAEDLAVYFCQQDYSSPYTFGGGTKLEIK
As for B4, in the assay with human TGF-β3, the “IC 50 (ng/ml)” value was 13 ng/mL.

B5: 1D11 mouse monoclonal anti-TGF-ß antibody (antibody, from another filing, V domains shown)
VH: QVQLQQSGPELVRPGASVKLSCKASGYIFITYWMNWVKQRPGQGLEWIGQIFPASGSTNYNEMFEGKATLTVDTSSSTAYMQLSSLTSEDSAVYYCARGDGNYALDAMDYWGQGTSVTVSS
VL: DIVLTQSPASLAVSLGQRATISCRASESVDSYGNSFMHWYQQKSGQPPKLLIYLASNLESGVPARFSGSGSRTDFTLTIDPVEADDAATYYCQQNNEDPLTFGAGTKLEIK
As to B5, the IC 50 (ng/ml), TMLEC PAI-1 promoter luciferase assay turned out to be 53.7 ng/mL in the assay with human TGF-β2 [1], 6.5 ng/mL with human TGF-β3 and 72 ng/mL with human TGF-β1.

B6: MTGF-β3-1719/13 (antibody, IgG2a, V domains shown)
VH: QVQLQQPGAELVKPGASVKMSCKASGYIFTSYWITWVKQRPGQGLEWIGDIFPGTGSTNYNEKFKTKASLTVDTSSSTANMQLSSLTSEDSAVYSCARKLGPNYAVDYWGQGTSVTVSS
VL: DVVMTQTPLSLPVSLGDQASISCRSSQSLIHSHGNTYLHWYLQKPGQSPKLLIYKLSNRFSGVPDRFSGSGSGTDFTLKISRVEAEDLGVYFCSQSTHVPFTFGSGTKLEIK
notes: also called TGF-ß3-17
Turning to B6, in the assay with human TGF-β2 [2], the binding result was “binds”. Besides, the “IC 50 (ng/ml)” value in the assay with human TGF-β3 came out at 79 ng/mL; with human TGF-β1 it was 263 ng/mL.
